From US20130171059A1 (AbbVie / Abbott, published 2013) come the findings set out here.

Assay [1] deals with T1, Recombinant Human SOST (human, UniProt Q9BQB4 24-213).
T1 construct: Biacore used the R&D reagent; also called Human Sclerostin
T1 sequence (looked up): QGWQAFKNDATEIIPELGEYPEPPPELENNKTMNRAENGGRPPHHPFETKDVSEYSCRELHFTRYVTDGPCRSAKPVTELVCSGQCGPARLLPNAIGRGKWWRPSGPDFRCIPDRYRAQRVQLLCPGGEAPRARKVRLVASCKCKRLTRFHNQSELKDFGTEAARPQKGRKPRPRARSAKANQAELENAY
Nature of the assay: SPR (Biacore). As for the experimental part:
(§1) The BIACORE assay (Biacore, Inc, Piscataway, N.J.) determined the affinity of antibodies or DVD-Ig proteins with kinetic measurements of on-rate and off-rate constants. Binding of antibodies or DVD-Ig proteins to a target antigen (for example, a purified recombinant target antigen) was determined by surface plasmon resonance-based measurements with a Biacore® 1000 or 3000 instrument (Biacore® AB, Uppsala, Sweden) using running HBS-EP (10 mM HEPES [pH 7.4], 150 mM NaCl, 3 mM EDTA, and 0.005% surfactant P20) at 25° C. All chemicals were obtained from Biacore® AB (Uppsala, Sweden) or otherwise from a different source as described in the text. For example, approximately 5000 RU of goat anti-mouse IgG, (Fcγ), fragment specific polyclonal antibody (Pierce Biotechnology Inc, Rockford, Ill.) diluted in 10 mM sodium acetate (pH 4.5) was directly immobilized across a CM5 research grade biosensor chip using a standard amine coupling kit according to manufacturer's instructions and procedures at 25 μg/ml. Unreacted moieties on the biosensor surface were blocked with ethanolamine. Modified carboxymethyl dextran surface in flowcell 2 and 4 was used as a reaction surface. Unmodified carboxymethyl dextran without goat anti-mouse IgG in flow cell 1 and 3 was used as the reference surface. For kinetic analysis, rate equations derived from the 1:1 Langmuir binding model were fitted simultaneously to association and dissociation phases of all eight injections (using global fit analysis) with the use of Biaevaluation 4.0.1 software. Purified antibodies or DVD-Ig proteins were diluted in HEPES-buffered saline for capture across goat anti-mouse IgG specific reaction surfaces. Antibodies or DVD-Ig proteins to be captured as a ligand (25 μg/ml) were injected over reaction matrices at a flow rate of 5 μl/minute. The association and dissociation rate constants, kₒₙ (M⁻¹s⁻¹) and koff (s⁻¹) were determined under a continuous flow rate of 25 μl/minute. Rate constants were derived by making kinetic binding measurements at different antigen concentrations ranging from 10-200 nM. The equilibrium dissociation constant (M) of the reaction between antibodies or DVD-Ig proteins and the target antigen was then calculated from the kinetic rate constants by the following formula: KD=koff/kₒₙ. Binding was recorded as a function of time and kinetic rate constants were calculated.

Assay [2] addresses T2, Recombinant Human TNF-α/TNFSF1A (human, UniProt P01375 77-233).
T2 construct: Bought reagent for Biacore; also called huTNFα; HuTNFα
Put plainly: SPR (Biacore). As for the experimental part:
as §1
Background: Surface plasmon resonance follows binding to a sensor surface in real time, without labels.

The target in assay [3] is T1, Recombinant Human SOST. Put plainly: cell-based or functional assay.
Assay [4] deals with T2, Recombinant Human TNF-α/TNFSF1A. Put plainly: cell-based or functional assay.
Assay [5] concerns the target T3, Recombinant Human β-NGF (human, UniProt P01138 122-239, limits assumed). Nature of the assay: cell-based or functional assay.
In assay [6] the target is T3, Recombinant Human β-NGF. Nature of the assay: SPR (Biacore). As for the experimental part: as §1
In assay [7] the target is T3, Recombinant Human β-NGF. Put plainly: SPR (Biacore); antibody captured on anti-IgG Fc chip, antigen 10-200 nM in flow, 25 C, HBS-EP pH 7.4; koff 6.80E-06 is near the assay floor of 10^-6 s^-1. How it is done:
The BIACORE assay (Biacore, Inc, Piscataway, N.J.) determined the affinity of antibodies or DVD-Ig proteins with kinetic measurements of on-rate and off-rate constants. Binding of antibodies or DVD-Ig proteins to a target antigen (for example, a purified recombinant target antigen) was determined by surface plasmon resonance-based measurements with a Biacore® 1000 or 3000 instrument (Biacore® AB, Uppsala, Sweden) using running HBS-EP (10 mM HEPES [pH 7.4], 150 mM NaCl, 3 mM EDTA, and 0.005% surfactant P20) at 25° C. All chemicals were obtained from Biacore® AB (Uppsala, Sweden) or otherwise from a different source as described in the text. […] The association and dissociation rate constants, kₒₙ (M⁻¹s⁻¹) and koff (s⁻¹) were determined under a continuous flow rate of 25 μl/minute. […] The equilibrium dissociation constant (M) of the reaction between antibodies or DVD-Ig proteins and the target antigen was then calculated from the kinetic rate constants by the following formula: KD=koff/kₒₙ. Binding was recorded as a function of time and kinetic rate constants were calculated.

T2 sequence (P01375 77-233 limits assumed): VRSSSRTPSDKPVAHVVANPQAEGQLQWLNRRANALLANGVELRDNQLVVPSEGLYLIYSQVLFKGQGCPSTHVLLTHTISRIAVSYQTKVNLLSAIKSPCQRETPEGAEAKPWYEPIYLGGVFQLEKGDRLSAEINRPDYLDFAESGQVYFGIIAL
T3 sequence (P01138 122-239 limits assumed): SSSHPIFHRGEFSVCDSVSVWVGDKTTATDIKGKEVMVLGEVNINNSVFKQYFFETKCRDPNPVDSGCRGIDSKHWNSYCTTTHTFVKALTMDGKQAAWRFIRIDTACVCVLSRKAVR

B1: DVD1991 (bispecific antibody)
DVD-H: DVQMIQSPSSLSASLGDIVTMTCQASQGTSINLNWFQQKPGKAPKLLIYGSSNLEDGVPSRFSGSRYGTDFTLTISSLEDEDLATYFCLQHSYLPYTFGGGTKLEIKRTVAAPEVQLVESGGGLIQPGGSLRLSCAASGFTVSRNYMSWVRQAPGKGLEWVSVIYSGDRTYYADSVKGRFTISRDNSKNTLYLQMNSLRAEDTAVYYCARGEGGFDYWGQGTLVTVSS
DVD-L: EVQLQQSGPELVTPGASVKISCKASGYTFTDHYMSWVKQSHGKSLEWIGDINPYSGETTYNQKFKGTATLTVDKSSSIAYMEIRGLTSEDSAVYYCARDDYDASPFAYWGQGTLVTVSAASTKGPEIVMTQSPATLSVSPGERATLSCRASQSVSSNLAWYQQKPGQAPRLLIHGASIRATGLPARFSGSGSGTEFTLTISSLQSEDFAVYYCQQYNYWWTFGQGTKVEIK
notes: VH/VL crossover DVD-Ig; also called DVD1991H + DVD1991L; copies: 2 + 2
In the case of B1, in assay [1], the Kd came to 0.017 nM, the koff worked out at 0.00025 s⁻¹ and the kon was 1.5e+07 M⁻¹ s⁻¹. In assay [2], the Kd came out at 0.66 nM, the koff was determined as 7.1e-05 s⁻¹ and the kon turned out to be 110000 M⁻¹ s⁻¹. In addition, the “N-Terminal VD SOST Neutralization Assay IC50 (Wnt-1/luciferase HEK clone #14)” value in assay [3] worked out at 36 nM. The “C-Terminal VD TNFα Neutralization Assay IC50 (L929 cells)” value in assay [4] was found to be 0.401 nM.

B2: DVD1961 (bispecific antibody)
heavy: DIQMTQSPSSLSASVGDRVTITCRASQSISNNLNWYQQKPGKAPKLLIYYTSRFHSGVPSRFSGSGSGTDFTFTISSLQPEDIATYYCQQEHTLPYTFGQGTKLEIKRTVAAPQVQLKESGPGLVAPSQSLSITCTVSGFSLTDYGVNWVRQPPGKGLEWLGMIWGDGSTDYDSTLKSRLSISKDNSKSQIFLKMNSLQTDDTARYYCAREWHHGPVAYWGQGTLVTVSA
light: QVQLQESGPGLVKPSETLSLTCTVSGFSLIGYDLNWIRQPPGKGLEWIGIIWGDGTTDYNSAVKSRVTISKDTSKNQFSLKLSSVTAADTAVYYCARGGYWYATSYYFDYWGQGTLVTVSSASTKGPDIVMTQSHKFMSTTVGDRVSITCKASQAVSSAVAWYQQKPGQSPKLLIYWASTRHTGVPDRFTGSGSVTDFTLTIHNLQAEDLALYYCQQHYSTPFTFGSGTKLEIK
notes: VH/VL crossover DVD-Ig; also called DVD1961H + DVD1961L
Take B2: the “N-Terminal VD NGF Neutralization Assay IC50 (TF-1 cell proliferation)” value in assay [5] was found to be 0.132 nM. Besides, in assay [2], the equilibrium dissociation constant (Kd) turned out to be 0.58 nM, the koff was 9.9e-05 s⁻¹ and the kon was 170000 M⁻¹ s⁻¹. Further, in assay [6], the Kd is less than 0.00031 nM, the koff is less than 1e-06 s⁻¹ and the kon amounted to 3.2e+06 M⁻¹ s⁻¹. The “C-Terminal VD TNFα Neutralization Assay IC50 (L929 cells)” value in assay [4] came out at 4.02 nM.

B3: DVD1960 (bispecific antibody, not shown: a dimerising Fc or GST)
heavy: DIVMTQSHKFMSTTVGDRVSITCKASQAVSSAVAWYQQKPGQSPKLLIYWASTRHTGVPDRFTGSGSVTDFTLTIHNLQAEDLALYYCQQHYSTPFTFGSGTKLEIKRTVAAPQVQLQESGPGLVKPSETLSLTCTVSGFSLIGYDLNWIRQPPGKGLEWIGIIWGDGTTDYNSAVKSRVTISKDTSKNQFSLKLSSVTAADTAVYYCARGGYWYATSYYFDYWGQGTLVTVSS
light: QVQLKESGPGLVAPSQSLSITCTVSGFSLTDYGVNWVRQPPGKGLEWLGMIWGDGSTDYDSTLKSRLSISKDNSKSQIFLKMNSLQTDDTARYYCAREWHHGPVAYWGQGTLVTVSAASTKGPDIQMTQSPSSLSASVGDRVTITCRASQSISNNLNWYQQKPGKAPKLLIYYTSRFHSGVPSRFSGSGSGTDFTFTISSLQPEDIATYYCQQEHTLPYTFGQGTKLEIKR
As for B3, in assay [5], the C-Terminal VD NGF Neutralization Assay IC50 (TF-1 cell proliferation) is 3.12 nM. For the same molecule, in assay [4], the N-Terminal VD TNFa Neutralization Assay IC50 (L929 cells) amounted to 0.086 nM.

B4: AB020 (antibody, V domains shown)
VH: QVQLQESGPGLVKPSETLSLTCTVSGFSLIGYDLNWIRQPPGKGLEWIGIIWGDGTTDYNSAVKSRVTISKDTSKNQFSLKLSSVTAADTAVYYCARGGYWYATSYYFDYWGQGTLVTVSS
VL: DIQMTQSPSSLSASVGDRVTITCRASQSISNNLNWYQQKPGKAPKLLIYYTSRFHSGVPSRFSGSGSGTDFTFTISSLQPEDIATYYCQQEHTLPYTFGQGTKLEIKR
notes: Parent antibody; also called NGF parent antibody
Take B4: the Kd in assay [7] worked out at 0.0027 nM. Besides, the “NGF Neutralization Assay IC50 (TF-1 cell proliferation)” value in assay [5] came out at 0.008 nM. In assay [6], the koff turned out to be 6.8e-06 s⁻¹ and the association rate constant (kon) was found to be 2.5e+06 M⁻¹ s⁻¹.

B5: DVD1990 (bispecific antibody)
DVD-H: EIVMTQSPATLSVSPGERATLSCRASQSVSSNLAWYQQKPGQAPRLLIHGASIRATGLPARFSGSGSGTEFTLTISSLQSEDFAVYYCQQYNYWWTFGQGTKVEIKRTVAAPEVQLQQSGPELVTPGASVKISCKASGYTFTDHYMSWVKQSHGKSLEWIGDINPYSGETTYNQKFKGTATLTVDKSSSIAYMEIRGLTSEDSAVYYCARDDYDASPFAYWGQGTLVTVSA
DVD-L: EVQLVESGGGLIQPGGSLRLSCAASGFTVSRNYMSWVRQAPGKGLEWVSVIYSGDRTYYADSVKGRFTISRDNSKNTLYLQMNSLRAEDTAVYYCARGEGGFDYWGQGTLVTVSSASTKGPDVQMIQSPSSLSASLGDIVTMTCQASQGTSINLNWFQQKPGKAPKLLIYGSSNLEDGVPSRFSGSRYGTDFTLTISSLEDEDLATYFCLQHSYLPYTFGGGTKLEIK
notes: VH/VL crossover DVD-Ig; also called DVD1990H + DVD1990L; copies: 2 + 2
As to B5, in assay [1], the Kd was determined as 0.33 nM, the koff came to 0.00058 s⁻¹ and the kon amounted to 1.8e+06 M⁻¹ s⁻¹. In addition, in assay [2], the Kd was found to be 0.016 nM, the koff amounted to 4.5e-05 s⁻¹ and the kon worked out at 2.8e+06 M⁻¹ s⁻¹. Further, the “C-Terminal VD SOST Neutralization Assay IC50 (Wnt-1/luciferase HEK clone #14)” value in assay [3] was greater than 250 nM. In assay [4], the “N-Terminal VD TNFa Neutralization Assay IC50 (L929 cells)” value was 0.408 nM.

B6: AB022 (antibody, V domains shown)
VH: EVQLQQSGPELVTPGASVKISCKASGYTFTDHYMSWVKQSHGKSLEWIGDINPYSGETTYNQKFKGTATLTVDKSSSIAYMEIRGLTSEDSAVYYCARDDYDASPFAYWGQGTLVTVSA
VL: DVQMIQSPSSLSASLGDIVTMTCQASQGTSINLNWFQQKPGKAPKLLIYGSSNLEDGVPSRFSGSRYGTDFTLTISSLEDEDLATYFCLQHSYLPYTFGGGTKLEIKR
notes: Parent antibody; also called SOST parent antibody
Take B6: in assay [1], the Kd was determined as 0.018 nM, the koff was 0.00038 s⁻¹ and the on-rate (kon) came out at 2.1e+07 M⁻¹ s⁻¹. The “SOST Neutralization Assay IC50 (Wnt-1/luciferase HEK clone #14)” value in assay [3] was determined as 34.8 nM.

B7: DVD1984 (bispecific antibody)
DVD-H: DIQMTQSPSSLSASVGDRVTITCRASQGIRIDLGWYQQKPGKAPKRLIYAASTLQSGVPSRFSGSGSGTEFIFTISSLQPEDFASYYCLQHKSYPLTFGGGTKVEIKRTVAAPQVQLQESGPGLVKPSETLSLTCTVSGFSLIGYDLNWIRQPPGKGLEWIGIIWGDGTTDYNSAVKSRVTISKDTSKNQFSLKLSSVTAADTAVYYCARGGYWYATSYYFDYWGQGTLVTVSS
DVD-L: QVQLVESGGGVVQPGRSLRLSCAASGFTFSSYDMHWVRQAPGKGLEWVAVIWSDGSIKYYADSVKGRFTISRDNSKNTLYLQMNSLRAEDTAVYYCAREVESAMGGFYYNGMDVWGQGTTVTVSSASTKGPDIQMTQSPSSLSASVGDRVTITCRASQSISNNLNWYQQKPGKAPKLLIYYTSRFHSGVPSRFSGSGSGTDFTFTISSLQPEDIATYYCQQEHTLPYTFGQGTKLEIK
notes: VH/VL crossover DVD-Ig; also called DVD1984H + DVD1984L; copies: 2 + 2
For B7, the “C-Terminal VD NGF Neutralization Assay IC50 (TF-1 cell proliferation)” value in assay [5] stood at 0.593 nM. In addition, in assay [2], the Kd amounted to 0.015 nM, the koff came out at 3.7e-05 s⁻¹ and the kon turned out to be 2.5e+06 M⁻¹ s⁻¹. Also, in assay [6], the Kd turned out to be 0.096 nM, the koff stood at 4.3e-05 s⁻¹ and the kon came to 450000 M⁻¹ s⁻¹. Also, the “N-Terminal VD TNFa Neutralization Assay IC50 (L929 cells)” value in assay [4] worked out at 0.017 nM.

Usually Kd stands for the constant that tells how readily two partners part at equilibrium. The koff is the rate constant with which the complex falls apart. Broadly, the kon is a measure of how fast the partners come together.
